Assay results published in patent US20110189172A1.

Molecular target: IL-1 receptor (human) (UniProt P14778)
Assay: cell-based or functional assay

UniProt P14778, sequence (P14778 18-569): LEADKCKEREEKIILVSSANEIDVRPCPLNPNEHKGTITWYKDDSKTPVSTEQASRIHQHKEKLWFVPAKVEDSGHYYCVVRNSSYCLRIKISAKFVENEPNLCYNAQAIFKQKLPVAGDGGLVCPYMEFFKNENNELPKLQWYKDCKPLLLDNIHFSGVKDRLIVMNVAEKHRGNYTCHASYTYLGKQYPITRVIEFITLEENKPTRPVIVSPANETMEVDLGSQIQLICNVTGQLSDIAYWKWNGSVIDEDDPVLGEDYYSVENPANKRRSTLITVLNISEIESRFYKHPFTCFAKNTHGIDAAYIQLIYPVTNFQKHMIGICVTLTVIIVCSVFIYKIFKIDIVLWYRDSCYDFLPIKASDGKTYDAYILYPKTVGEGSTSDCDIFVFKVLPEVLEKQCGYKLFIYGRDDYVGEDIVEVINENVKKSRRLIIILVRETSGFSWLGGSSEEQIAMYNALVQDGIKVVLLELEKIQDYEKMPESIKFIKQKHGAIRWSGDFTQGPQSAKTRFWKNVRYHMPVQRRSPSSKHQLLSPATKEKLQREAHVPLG

IC50 (pM), inhibition of IL-1β induced IL-8 production in human whole blood: 53.4 pM
Substance: Kineret® (anakinra), recombinant IL-1 receptor antagonist (IL-1Ra) (from UniProt P18510 26-177) (ligand)
